Reference: paper PMC4856535 (Nature structural & molecular biology, 2016)
Positions count from the first letter of the chain named. Names and notes keep the numbering of the source. One block for each molecule: values may come before it.

Key:
[1] = molecular target: TAMRA-labeled caspase-1^CARD-SUMO with C-terminal sortase motif (His-MBP removed by TEV protease in the assay) (human) (UniProt P29466); assay: fluorescence polarisation
[2] = molecular target: the molecule itself; assay: SEC
[3] = molecular target: T1, His-GFP-caspase-1^CARD (wild type) (human, UniProt P29466 1-91); assay: fluorescence polarisation
T1 sequence (looked up): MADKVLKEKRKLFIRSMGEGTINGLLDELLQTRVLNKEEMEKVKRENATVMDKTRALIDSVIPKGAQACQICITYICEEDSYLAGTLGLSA

B1: His-MBP-ICEBERG (natural protein, human)
chain: ADQLLRKKRRIFIHSVGAGTINALLDCLLEDEVISQEDMNKVRDENDTVMDKARVLIDLVTGKGPKSCCKFIKHLCEEDPQLASKMGLH
binding result [2]: binds

B2: His-tagged human inhibitor of CARD (INCA) (natural protein, UniProt Q5XLA6 1-110, looked up)
chain: MADKVLKEKRKQFIRSVGEGTINGLLGELLETRVLSQEEIEIVKCENATVMDKARALLDSVIRKGAPACQICITYICEEDSHLAGTLGLSAGPTSGNHLTTQDSQIVLPS
Ki [3]: 4.3 ± 1.4 nM

The next lines start with the values.

Ki [1]: 9.4 nM
Molecule: His-tagged human inhibitor of CARD (INCA) (from UniProt Q5XLA6 1-110) (natural protein)

Ki [3]: ~1700 nM
B3: INCA R55E (natural protein, human, UniProt Q5XLA6 1-110, looked up)
chain: B2 chain with R55E
